Test results as given in patent publication US20150259684.

Target: T1, NM Cas9 (Neisseria meningitidis) (UniProt C9X1G5)
T1 sequence: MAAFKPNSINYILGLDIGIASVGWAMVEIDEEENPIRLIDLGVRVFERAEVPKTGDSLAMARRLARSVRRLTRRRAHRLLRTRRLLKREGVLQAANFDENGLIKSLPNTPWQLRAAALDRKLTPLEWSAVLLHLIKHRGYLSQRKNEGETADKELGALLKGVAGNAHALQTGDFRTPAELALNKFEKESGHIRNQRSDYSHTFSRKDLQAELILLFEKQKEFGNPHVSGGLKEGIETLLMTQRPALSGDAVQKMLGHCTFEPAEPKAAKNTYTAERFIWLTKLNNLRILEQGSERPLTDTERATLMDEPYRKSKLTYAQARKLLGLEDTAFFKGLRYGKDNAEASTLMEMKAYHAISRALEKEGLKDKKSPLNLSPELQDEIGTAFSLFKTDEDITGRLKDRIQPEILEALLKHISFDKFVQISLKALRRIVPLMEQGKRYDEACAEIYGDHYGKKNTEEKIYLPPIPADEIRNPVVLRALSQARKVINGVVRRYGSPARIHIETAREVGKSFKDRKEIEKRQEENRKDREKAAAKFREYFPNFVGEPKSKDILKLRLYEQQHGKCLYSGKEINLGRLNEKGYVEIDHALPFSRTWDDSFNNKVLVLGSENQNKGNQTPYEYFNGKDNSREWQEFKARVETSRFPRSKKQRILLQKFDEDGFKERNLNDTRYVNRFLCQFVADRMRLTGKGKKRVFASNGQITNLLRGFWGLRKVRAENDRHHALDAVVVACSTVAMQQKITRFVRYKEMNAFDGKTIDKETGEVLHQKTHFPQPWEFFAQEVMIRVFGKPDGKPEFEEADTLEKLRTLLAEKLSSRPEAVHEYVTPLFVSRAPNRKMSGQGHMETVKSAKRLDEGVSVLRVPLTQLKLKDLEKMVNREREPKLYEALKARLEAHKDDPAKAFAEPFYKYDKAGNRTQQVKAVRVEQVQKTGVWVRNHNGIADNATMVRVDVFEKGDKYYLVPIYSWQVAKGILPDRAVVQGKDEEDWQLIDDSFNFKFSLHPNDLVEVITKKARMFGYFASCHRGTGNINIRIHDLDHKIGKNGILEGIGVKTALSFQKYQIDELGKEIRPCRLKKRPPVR
Assay: cell_activity
Settings: PAM NCCAGGTN depleted only 4-fold; protospacer for this value not stated

“UACCAUCUCAAGCUUGUUGAGUUGUAGCUCCCUUUCUCAUUUCGCAGUGCUACAAU / TACCATCTCAAGCTTGTTGANCCAGGTN / NACCTGGNTCAACAAGCTTGAGATGGTA” was tested. Which activity (fold depletion) did it give?
The activity (fold depletion) was 4.
